Columns and labels:
[1] = target: Aspergillus fumigatus enolase (AfEno1), recombinant His-tagged (Aspergillus fumigatus) (UniProt Q96X30); test: BLI; His-tagged AfEno1 on Ni-NTA biosensors; factor H, C4BP or plasminogen as analyte; DPBS with 0.001% gelatin, RT; association 250 s, dissociation 250 s; 1:1 model; heat inactivated regulators as non-binding control
[2] = target: T1, human C4b binding protein (C4BP) (human, UniProt P04003 49-597; P20851 18-252); test: as above; conditions: both partners purified
T1 construct: also called NHS-derived C4BP; plasma-derived C4BP; source: bought: CompTech (purified human C4BP); also in normal human serum (NHS); copies: 7 + 1
T1 sequence 1: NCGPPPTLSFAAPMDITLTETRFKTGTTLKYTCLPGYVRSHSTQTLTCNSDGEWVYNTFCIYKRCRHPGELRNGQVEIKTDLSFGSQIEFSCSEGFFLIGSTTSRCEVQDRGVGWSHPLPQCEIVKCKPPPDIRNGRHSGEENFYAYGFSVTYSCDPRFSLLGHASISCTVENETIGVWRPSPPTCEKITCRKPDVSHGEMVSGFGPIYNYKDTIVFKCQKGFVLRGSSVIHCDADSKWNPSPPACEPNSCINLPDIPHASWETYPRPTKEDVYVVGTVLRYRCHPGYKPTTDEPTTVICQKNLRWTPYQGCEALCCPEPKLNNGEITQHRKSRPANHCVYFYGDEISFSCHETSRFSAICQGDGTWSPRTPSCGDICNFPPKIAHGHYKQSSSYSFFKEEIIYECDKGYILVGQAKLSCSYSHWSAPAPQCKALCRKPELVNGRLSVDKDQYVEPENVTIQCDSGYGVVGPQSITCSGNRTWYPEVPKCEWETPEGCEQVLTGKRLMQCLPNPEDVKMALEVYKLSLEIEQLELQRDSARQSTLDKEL
T1 sequence 2: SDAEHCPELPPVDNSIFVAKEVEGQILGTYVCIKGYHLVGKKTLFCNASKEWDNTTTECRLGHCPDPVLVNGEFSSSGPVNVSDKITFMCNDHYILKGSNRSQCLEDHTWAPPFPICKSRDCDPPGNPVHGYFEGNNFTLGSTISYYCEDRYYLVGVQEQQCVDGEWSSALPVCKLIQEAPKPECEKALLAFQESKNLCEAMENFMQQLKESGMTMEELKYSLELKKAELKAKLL

human factor H [3] = target: T2, human factor H (human, UniProt P08603 19-1231); test: as above; conditions: both partners purified
T2 construct: complement factor H, human, 150-kDa plasma protein of 20 short conserved repeats (SCRs); also called NHS-derived factor H; serum-derived Factor H; source: bought: CompTech (purified human factor H); also in normal human serum (NHS)
T2 sequence (P08603 19-1231): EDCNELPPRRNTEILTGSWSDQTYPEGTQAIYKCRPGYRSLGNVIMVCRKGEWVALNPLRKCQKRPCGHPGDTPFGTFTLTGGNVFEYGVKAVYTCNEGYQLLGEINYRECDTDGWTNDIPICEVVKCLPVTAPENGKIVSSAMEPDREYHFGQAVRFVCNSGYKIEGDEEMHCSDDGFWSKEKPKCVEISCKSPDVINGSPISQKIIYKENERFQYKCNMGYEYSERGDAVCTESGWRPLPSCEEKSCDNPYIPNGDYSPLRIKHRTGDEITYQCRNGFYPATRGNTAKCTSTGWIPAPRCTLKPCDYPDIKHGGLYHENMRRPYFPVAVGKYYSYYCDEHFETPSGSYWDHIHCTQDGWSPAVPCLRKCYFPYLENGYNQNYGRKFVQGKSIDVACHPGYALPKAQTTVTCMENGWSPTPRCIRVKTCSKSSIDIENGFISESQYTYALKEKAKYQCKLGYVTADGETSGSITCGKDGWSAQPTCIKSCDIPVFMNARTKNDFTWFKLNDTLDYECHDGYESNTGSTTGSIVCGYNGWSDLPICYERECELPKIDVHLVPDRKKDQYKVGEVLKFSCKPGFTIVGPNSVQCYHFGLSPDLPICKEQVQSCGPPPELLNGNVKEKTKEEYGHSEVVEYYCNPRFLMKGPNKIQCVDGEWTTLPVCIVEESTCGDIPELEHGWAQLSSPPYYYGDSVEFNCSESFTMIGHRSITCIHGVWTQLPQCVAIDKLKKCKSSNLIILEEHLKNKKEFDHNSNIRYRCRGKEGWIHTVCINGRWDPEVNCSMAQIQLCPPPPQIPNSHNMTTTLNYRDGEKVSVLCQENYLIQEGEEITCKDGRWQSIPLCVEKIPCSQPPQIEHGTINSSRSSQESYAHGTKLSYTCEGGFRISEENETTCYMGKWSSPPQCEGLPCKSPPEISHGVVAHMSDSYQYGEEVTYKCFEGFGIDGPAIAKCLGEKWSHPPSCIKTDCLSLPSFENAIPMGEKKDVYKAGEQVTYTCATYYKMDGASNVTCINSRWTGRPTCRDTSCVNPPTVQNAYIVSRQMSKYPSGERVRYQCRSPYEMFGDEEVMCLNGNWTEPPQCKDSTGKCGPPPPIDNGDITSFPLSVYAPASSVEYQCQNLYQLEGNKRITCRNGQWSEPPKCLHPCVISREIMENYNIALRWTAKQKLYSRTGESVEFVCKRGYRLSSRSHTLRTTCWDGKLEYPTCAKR

human factor H [4] = target: T2, human factor H; test: not stated; data not shown; method and format not told

## human plasminogen (natural protein)
[1]
  Kd: 530 nM

B1: Aspergillus fumigatus enolase (AfEno1), recombinant His-tagged (natural protein)
chain: MPISKIHARSVYDSRGNPTVEVDVVTETGLHRAIVPSGASTGQHEAHELRDGDKTQWGGKGVLKAVKNVNETIGPALIKENIDVKDQSKVDEFLNKLDGTANKSNLGANAILGVSLAVAKAGAAEKGVPLYAHISDLAGTKKPYVLPVPFQNVLNGGSHAGGRLAFQEFMIVPDSAPSFSEALRQGAEVYQKLKALAKKKYGQSAGNVGDEGGVAPDIQTAEEALDLITEAIEQAGYTGKIKIAMDVASSEFYKADVKKYDLDFKNPESDPSKWLTYEQLADLYKSLAAKYPIVSIEDPFAEDDWEAWSYFYKTSDFQIVGDDLTVTNPGRIKKAIELKSCNALLLKVNQIGTLTESIQAAKDSYADNWGVMVSHRSGETEDVTIADIAVGLRSGQIKTGAPCRSERLAKLNQILRIEEELGENAVYAGSKFRTAVNL
notes: enolase (AfEno1, allergen Aspf22) of Aspergillus fumigatus; the gene was cloned with six His residues added at the N-terminus; Vector printed as 'pET 4.1 a'; also called Aspf22; recombinant AfEno1; source: E. coli BL21 (DE3), purified (Ni-NTA, HisTrap); not shown: His6, N-terminal, kept
[2]
  Kd: 131 nM
Human factor H [3]
  Kd: 528 nM

B2: Candida albicans Pra1 (pH-regulated antigen 1) (natural protein)
chain: APVTVTRFVDASPTGYDWRADWVKGFPIDSSCNATQYNQLSTGLQEAQLLAEHARDHTLRFGSKSPFFRKYFGNETASAEVVGHFDNVVGADKSSILFLCDDLDDKCKNDGWAGYWRGSNHSDQTIICDLSFVTRRYLTQLCSSGYTVSKSKTNIFWAGDLLHRFWHLKSIGQLVIEHYADTYEEVLELAQENSTYAVRNSNSLIYYALDVYAYDVTIPGEGCNGDGTSYKKSDFSSFEDSDSGSDSGASSTASSSHQHTDSNPSATTDANSHCHTHADGEVHC
notes: pH-regulated antigen 1 (Pra1) of Candida albicans; the construct is not described; also called C. albicans Pra1
Human factor H [4]
  Kd: 1.87 nM

Source: publication PMC6883375, “Enolase From Aspergillus fumigatus Is a Moonlighting Protein That Binds the Human Plasma Complement Proteins Factor H, FHL-1, C4BP, and Plasminogen” (Frontiers in Immunology, 2019)
